In patent US20240002531A1 (ONO PHARMACEUTICAL, published 2024):

Legend:
[1] = molecular target: T1, M611A peptide (HER2 603-622 with M611A) (human); assay: SPR Biacore, mAb on chip, peptide analyte, 1:1 fit;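 also: binding measured at 25 °C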
T1 peptide: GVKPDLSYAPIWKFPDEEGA

[2] = molecular target: T2, HER2-F616A expressed on CHO-K1 cells (human, UniProt P04626 23-1255); assay: flow cytometry on CHO-K1 cells expressing the point mutant
T2 construct: also called F616A point mutant; not shown: PA tag at the N terminus; RAP tag and MAP tag at the C terminus

[3] = molecular target: T3, HER2-K615A expressed on CHO-K1 cells (human, UniProt P04626 23-1255); assay: as above
T3 construct: also called K615A point mutant; not shown: PA tag at the N terminus; RAP tag and MAP tag at the C terminus

HER2 peptide p612-620 = molecular target: T4, HER2 peptide p612-620 (human); assay: SPR Biacore, mAb on chip, peptide analyte, 1:1 fit
T4 peptide: PIWKFPDEE

HER2 peptide p613-620 = molecular target: T5, HER2 peptide p613-620 (human); assay: SPR Biacore, mAb on chip, peptide analyte, 1:1 fit
T5 peptide: IWKFPDEE

HER2 peptide p613-618 = molecular target: T6, HER2 peptide p613-618 (human); assay: SPR Biacore, mAb on chip, peptide analyte, 1:1 fit
T6 peptide: IWKFPD

HER2 peptide p611-620 = molecular target: T7, HER2 peptide p611-620 (human); assay: SPR Biacore, mAb on chip, peptide analyte, 1:1 fit
T7 peptide: MPIWKFPDEE

HER2 peptide p609-622 = molecular target: T8, HER2 peptide p609-622 (human); assay: SPR Biacore, mAb on chip, peptide analyte, 1:1 fit
T8 peptide: SYMPIWKFPDEEGA

HER2 peptide p610-620 = molecular target: T9, HER2 peptide p610-620 (human); assay: SPR Biacore, mAb on chip, peptide analyte, 1:1 fit
T9 peptide: YMPIWKFPDEE

HER2 peptide p609-621 = molecular target: T10, HER2 peptide p609-621 (human); assay: SPR Biacore, mAb on chip, peptide analyte, 1:1 fit
T10 peptide: SYMPIWKFPDEEG

HER2 peptide p614-619 = molecular target: T11, HER2 peptide p614-619 (human); assay: SPR Biacore, mAb on chip, peptide analyte, 1:1 fit
T11 peptide: WKFPDE

HER2 peptide p609-619 = molecular target: T12, HER2 peptide p609-619 (human); assay: SPR Biacore, mAb on chip, peptide analyte, 1:1 fit
T12 peptide: SYMPIWKFPDE

HER2 peptide p614-622 = molecular target: T13, HER2 peptide p614-622 (human); assay: SPR Biacore, mAb on chip, peptide analyte, 1:1 fit
T13 peptide: WKFPDEEGA

HER2 peptide p612-621 = molecular target: T14, HER2 peptide p612-621 (human); assay: SPR Biacore, mAb on chip, peptide analyte, 1:1 fit
T14 peptide: PIWKFPDEEG

HER2 peptide p613-622 = molecular target: T15, HER2 peptide p613-622 (human); assay: SPR Biacore, mAb on chip, peptide analyte, 1:1 fit
T15 peptide: IWKFPDEEGA

HER2 peptide p613-621 = molecular target: T16, HER2 peptide p613-621 (human); assay: SPR Biacore, mAb on chip, peptide analyte, 1:1 fit
T16 peptide: IWKFPDEEG

HER2 peptide p610-621 = molecular target: T17, HER2 peptide p610-621 (human); assay: SPR Biacore, mAb on chip, peptide analyte, 1:1 fit
T17 peptide: YMPIWKFPDEEG

HER2 peptide p610-622 = molecular target: T18, HER2 peptide p610-622 (human); assay: SPR Biacore, mAb on chip, peptide analyte, 1:1 fit
T18 peptide: YMPIWKFPDEEGA

[4] = molecular target: T19, HER2 peptide p603-622 (amino acids 603 to 622 of human HER2) (human); assay: SPR Biacore, mAb on chip, peptide analyte, 1:1 fit
T19 construct: Synthetic peptide; also called wild-type HER2 peptide
T19 peptide: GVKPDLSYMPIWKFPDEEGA

HER2 peptide p611-622 = molecular target: T20, HER2 peptide p611-622 (human); assay: SPR Biacore, mAb on chip, peptide analyte, 1:1 fit
T20 peptide: MPIWKFPDEEGA

HER2 peptide p613-619 = molecular target: T21, HER2 peptide p613-619 (human); assay: SPR Biacore, mAb on chip, peptide analyte, 1:1 fit
T21 peptide: IWKFPDE

HER2 peptide p611-621 = molecular target: T22, HER2 peptide p611-621 (human); assay: SPR Biacore, mAb on chip, peptide analyte, 1:1 fit
T22 peptide: MPIWKFPDEEG

[5] = molecular target: T23, HER2-W614A expressed on CHO-K1 cells (human, UniProt P04626 23-1255); assay: flow cytometry on CHO-K1 cells expressing the point mutant
T23 construct: also called W614A point mutant; not shown: PA tag at the N terminus; RAP tag and MAP tag at the C terminus

[6] = molecular target: T3, HER2-K615A expressed on CHO-K1 cells; assay: flow cytometry on CHO-K1 cells expressing HER2-K615A

B1: H2Mab-214 antibody (antibody, V domains shown)
VH: QVTLKESGPGILQPSQTLSLTCSFSGFSLSTSGMGVSWIRQPSGKGLEWLAHIFWDDDKRYNPSLKSRLTISKDTSRNKVFLKITSVDTADTATYYCARRVVATDWYFDVWGAGTTVTVSS
VL: DIVLTQSPASLAVSLGQRATISCRASESVEYYGTTLMQWYQQKPGQPPKLLIYAASKVESGVPARFSGSGSGTDFSLNIHPVEEDDVAMYFCQQSRKVPLTFGAGTKLELKR
notes: Mouse monoclonal from a hybridoma (immunogen HER2ec made in LN229 cells); also called antibody of the present invention
**Q.** Which results are given for B1?
**A.** Kd [1]: 34.1 nM; koff [1]: 0.00774 s⁻¹; kon [1]: 227000 M⁻¹ s⁻¹; binding result [2]: no binding (tested: 10 g/mL (so in the source)); binding result [3]: no binding (tested: 10 g/mL (so in the source))

B2: H2Mab-250 antibody (antibody, V domains shown)
VH: EVQLVESGGGLVQPGGSLKLSCAASGFTFSNYGMSWVRQTPDRRLELVATINNNGGGTYYPDSVKGRFTISRDNAKNTLYLQMSSLKSEDTAMYYCTSPGLLWDAWGAGTTVTVSS
VL: not shown
notes: as for B1
**Q.** With B2 as the binder, how does the Kd (HER2 peptide p612-620) read?
**A.** 4.39 nM

**Q.** And the koff (HER2 peptide p612-620)?
**A.** 0.000756 s⁻¹

**Q.** What about the kon (HER2 peptide p612-620) of the same binder?
**A.** 172000 M⁻¹ s⁻¹

**Q.** And the Kd (HER2 peptide p613-620)?
**A.** 13.1 nM

**Q.** And the koff (HER2 peptide p613-620)?
**A.** 0.00371 s⁻¹

**Q.** And the kon (HER2 peptide p613-620)?
**A.** 283000 M⁻¹ s⁻¹

**Q.** What about the Kd (HER2 peptide p613-618) of the same binder?
**A.** 4.45 nM

**Q.** What about the koff (HER2 peptide p613-618) of the same binder?
**A.** 0.00289 s⁻¹

**Q.** And the kon (HER2 peptide p613-618)?
**A.** 649000 M⁻¹ s⁻¹

**Q.** What about the Kd (HER2 peptide p611-620) of the same binder?
**A.** 2.65 nM

**Q.** What about the koff (HER2 peptide p611-620) of the same binder?
**A.** 0.000387 s⁻¹

**Q.** And the kon (HER2 peptide p611-620)?
**A.** 146000 M⁻¹ s⁻¹

**Q.** And the Kd (HER2 peptide p609-622)?
**A.** 1.57 nM

**Q.** What about the koff (HER2 peptide p609-622) of the same binder?
**A.** 0.00033 s⁻¹

**Q.** What about the kon (HER2 peptide p609-622) of the same binder?
**A.** 210000 M⁻¹ s⁻¹

**Q.** What about the Kd (HER2 peptide p610-620) of the same binder?
**A.** 1.32 nM

**Q.** What about the koff (HER2 peptide p610-620) of the same binder?
**A.** 0.000342 s⁻¹

**Q.** And the kon (HER2 peptide p610-620)?
**A.** 260000 M⁻¹ s⁻¹

**Q.** And the Kd (HER2 peptide p609-621)?
**A.** 1.17 nM

**Q.** And the koff (HER2 peptide p609-621)?
**A.** 0.000289 s⁻¹

**Q.** What about the kon (HER2 peptide p609-621) of the same binder?
**A.** 247000 M⁻¹ s⁻¹

**Q.** What about the Kd (HER2 peptide p614-619) of the same binder?
**A.** 1380 nM

**Q.** And the koff (HER2 peptide p614-619)?
**A.** 0.00118 s⁻¹

**Q.** What about the kon (HER2 peptide p614-619) of the same binder?
**A.** 854 M⁻¹ s⁻¹

**Q.** And the Kd (HER2 peptide p609-619)?
**A.** 1.2 nM

**Q.** And the koff (HER2 peptide p609-619)?
**A.** 0.000293 s⁻¹

**Q.** And the kon (HER2 peptide p609-619)?
**A.** 244000 M⁻¹ s⁻¹

**Q.** What about the Kd (HER2 peptide p614-622) of the same binder?
**A.** 2910 nM

**Q.** What about the koff (HER2 peptide p614-622) of the same binder?
**A.** 0.00145 s⁻¹

**Q.** And the kon (HER2 peptide p614-622)?
**A.** 498 M⁻¹ s⁻¹

**Q.** And the Kd (HER2 peptide p612-621)?
**A.** 3.49 nM

**Q.** And the koff (HER2 peptide p612-621)?
**A.** 0.000683 s⁻¹

**Q.** What about the kon (HER2 peptide p612-621) of the same binder?
**A.** 196000 M⁻¹ s⁻¹

**Q.** And the Kd (HER2 peptide p613-622)?
**A.** 14 nM

**Q.** What about the koff (HER2 peptide p613-622) of the same binder?
**A.** 0.00346 s⁻¹

**Q.** What about the kon (HER2 peptide p613-622) of the same binder?
**A.** 247000 M⁻¹ s⁻¹

**Q.** What about the Kd (HER2 peptide p613-621) of the same binder?
**A.** 10.5 nM

**Q.** And the koff (HER2 peptide p613-621)?
**A.** 0.00343 s⁻¹

**Q.** What about the kon (HER2 peptide p613-621) of the same binder?
**A.** 325000 M⁻¹ s⁻¹

**Q.** What about the Kd (HER2 peptide p610-621) of the same binder?
**A.** 1.36 nM

**Q.** And the koff (HER2 peptide p610-621)?
**A.** 0.000347 s⁻¹

**Q.** What about the kon (HER2 peptide p610-621) of the same binder?
**A.** 256000 M⁻¹ s⁻¹

**Q.** What about the Kd (HER2 peptide p610-622) of the same binder?
**A.** 1.81 nM

**Q.** And the koff (HER2 peptide p610-622)?
**A.** 0.00033 s⁻¹

**Q.** And the kon (HER2 peptide p610-622)?
**A.** 183000 M⁻¹ s⁻¹

**Q.** And the Kd [4]?
**A.** 3.67 nM

**Q.** What about the koff [4] of the same binder?
**A.** 0.00033 s⁻¹

**Q.** What about the kon [4] of the same binder?
**A.** 90100 M⁻¹ s⁻¹

**Q.** What about the Kd (HER2 peptide p611-622) of the same binder?
**A.** 2.02 nM

**Q.** What about the koff (HER2 peptide p611-622) of the same binder?
**A.** 0.000378 s⁻¹

**Q.** And the kon (HER2 peptide p611-622)?
**A.** 187000 M⁻¹ s⁻¹

**Q.** What about the Kd (HER2 peptide p613-619) of the same binder?
**A.** 10.3 nM

**Q.** What about the koff (HER2 peptide p613-619) of the same binder?
**A.** 0.0041 s⁻¹

**Q.** What about the kon (HER2 peptide p613-619) of the same binder?
**A.** 397000 M⁻¹ s⁻¹

**Q.** What about the Kd (HER2 peptide p611-621) of the same binder?
**A.** 1.89 nM

**Q.** What about the koff (HER2 peptide p611-621) of the same binder?
**A.** 0.000411 s⁻¹

**Q.** What about the kon (HER2 peptide p611-621) of the same binder?
**A.** 218000 M⁻¹ s⁻¹

**Q.** Does B2 bind [5]?
**A.** no binding (tested: 10 g/mL (so in the source))

**Q.** Does B2 bind [6]?
**A.** binds
